For orientation: Kd means the free concentration of one partner at which half of the binding sites on the other are occupied at equilibrium, for simple one-to-one binding.

The assay concerns the target Nud1 pT78 peptide (budding yeast).

B1: Mob1 (construct not stated for this experiment) (natural protein)
chain: MSFLQNFHISPGQTIRSTRGFKWNTANAANNAGSVSPTKATPHNNTINGNNNNANTINNRADFTNNPVNGYNESDHGRMSPVLTTPKRHAPPPEQLQNVTDFNYTPSHQKPFLQPQAGTTVTTHQDIKQIVEMTLGSEGVLNQAVKLPRGEDENEWLAVHCVDFYNQINMLYGSITEFCSPQTCPRMIATNEYEYLWAFQKGQPPVSVSAPKYVECLMRWCQDQFDDESLFPSKVTGTFPEGFIQRVIQPILRRLFRVYAHIYCHHFNEILELNLQTVLNTSFRHFCLFAQEFELLRPADFGPLLELVMELRDR
With B1, the Kd stood at 2400 nM.

For the origin of these results see paper PMC3884217.
